Data: article PMC6546395 (eLife, 2019)

B1: Sli15/Ipl1 core chromosomal passenger complex (complex, S. cerevisiae)
chain 1: MDWAIKAARKKTQRKPGSTRSIIETLDDLNNLTTDAHSEINQRLYESSEWLRNNVYMNTLKYEDKKMEESLISPENTHNKMDVEFPKMKGEYELSNSQNDAAKDVTKTPRNGLHNDKSITPKSLRRKEVTEGMNRFSIHDTNKSPVEPLNSVKVDANESEKSSPWSPYKVEKVLRESSKTSESPINTKRFDNQTWAAKEEMENEPILQALKKAESVKVKPPPNSGIARSQRRSNMFVPLPNKDPLIIQHIPPTKSSGSIPKVRTVKESPIAFKKKSTINSPAIRAVENSDTAGSTKASSVFDRLSSIPTKSFENKISRGNVGHKYSSSSIDLTGSPMKKVSQKFKSINSTDTDMQEALRDIFSVKNKITKNNSPKGKNSRKSSIPRFDKTSLKLTTHKKLAIIAEQKKKSKHSSDVHKTGSRPHSISPTKISVDSSSPSKEVKNYYQSPVRGYLRPTKASISPNKNKNLTTSQTPHRLKIKEKTLRKLSPNIADISKPESRKSKNYRLTNLQLLPPAEAERDDLKKKFDKRLSGIMRSQQEHHRRKQEKQKRMSHLEQDLKKQTSFSNDYKDIRLKESLAPFDNHVRDTINKNTAFSTDNILATINTVDHREIIGNVTPKIASVNDSLPEINTDSEDEASVTLAAWAKSPYLQEQLIRQQDINPQTIFGPIPPLHTDEIFPNPRLNRLKPRQIVPKRS
chain 2: MQRNSLVNIKLNANSPSKKTTTRPNTSRINKPWRISHSPQQRNPNSKIPSPVREKLNRLPVNNKKFLDMESSKIPSPIRKATSSKMIHENKKLPKFKSLSLDDFELGKKLGKGKFGKVYCVRHRSTGYICALKVMEKEEIIKYNLQKQFRREVEIQTSLNHPNLTKSYGYFHDEKRVYLLMEYLVNGEMYKLLRLHGPFNDILASDYIYQIANALDYMHKKNIIHRDIKPENILIGFNNVIKLTDFGWSIINPPENRRKTVCGTIDYLSPEMVESREYDHTIDAWALGVLAFELLTGAPPFEEEMKDTTYKRIAALDIKMPSNISQDAQDLILKLLKYDPKDRMRLGDVKMHPWILRNKPFWENKRL
notes: Sli15 (INCENP ortholog), wild type; open reading frame amplified from yeast genomic DNA; Ipl1 (Aurora B ortholog); also called Sli15-2xStrep/Ipl1; Sli15-2xStrep-HA-6xHis/Ipl1; source: High Five insect cells (baculovirus), purified (Strep-Tactin Superflow agarose); not shown: 2xStrep, C-terminal, kept; HA, C-terminal, kept; 6xHis, C-terminal, kept
B2: dephosphorylated Sli15/Ipl1 (complex, S. cerevisiae)
chain 1: B1 chain 1
chain 2: B1 chain 2
modifications: basal phosphorylation removed with lambda phosphatase | basal phosphorylation removed with lambda phosphatase
notes: Sli15 (INCENP ortholog); open reading frame amplified from yeast genomic DNA; Ipl1 (Aurora B ortholog); also called Sli15/Ipl1 (dp); not shown: 2xStrep, C-terminal, kept; HA, C-terminal, kept; 6xHis, C-terminal, kept

Columns and labels:
[1] = molecular target: T1, COMA complex (Ctf19/Okp1/Mcm21/Ame1) (S. cerevisiae, UniProt P38313 1-324; P53298 1-406; Q02732 1-369; Q06675 1-368); experiment: cross-linking; Sli15-2xStrep-HA-6xHis/Ipl1 with Ame1/Okp1 and Ctf19/Mcm21 assembled on Strep-Tactin agarose (RT, 1 hr; 50 mM NaH2PO4 pH 8.0, 500 mM NaCl, 5% glycerol), eluted with biotin, re-isolated on Ni-NTA beads; BS3 0.25–0.5 mM, 30°C, 30 min; LC-MS/MS, xQuest; details: both partners purified
T1 construct: Ame1 (CENP-U ortholog); Okp1 (CENP-Q ortholog); Ctf19 (CENP-P ortholog); open reading frame amplified from yeast genomic DNA; Mcm21 (CENP-O ortholog); The two heterodimers m7 and m12 together; copies: + + +

[2] = molecular target: T1, COMA complex (Ctf19/Okp1/Mcm21/Ame1); experiment: pull-down; Sli15-2xStrep-HA-6xHis/Ipl1 immobilised on Strep-Tactin Superflow agarose, 2-fold molar excess of the partners; 50 mM NaH2PO4 pH 8, 120 mM NaCl, 5% glycerol, 4°C, 1 hr; SDS-PAGE and Coomassie; details: both partners purified

T1 sequence (P38313 whole entry, chain 1 of 4): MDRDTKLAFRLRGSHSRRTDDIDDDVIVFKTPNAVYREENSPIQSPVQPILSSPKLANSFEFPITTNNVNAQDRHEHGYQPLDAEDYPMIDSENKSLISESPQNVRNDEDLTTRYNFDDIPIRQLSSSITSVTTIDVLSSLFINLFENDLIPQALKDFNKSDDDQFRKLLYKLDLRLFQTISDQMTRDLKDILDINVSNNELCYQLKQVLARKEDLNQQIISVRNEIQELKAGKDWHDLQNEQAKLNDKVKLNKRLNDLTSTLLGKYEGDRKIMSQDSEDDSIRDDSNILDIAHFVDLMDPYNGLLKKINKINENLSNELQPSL
T1 sequence (P53298 whole entry, chain 2 of 4): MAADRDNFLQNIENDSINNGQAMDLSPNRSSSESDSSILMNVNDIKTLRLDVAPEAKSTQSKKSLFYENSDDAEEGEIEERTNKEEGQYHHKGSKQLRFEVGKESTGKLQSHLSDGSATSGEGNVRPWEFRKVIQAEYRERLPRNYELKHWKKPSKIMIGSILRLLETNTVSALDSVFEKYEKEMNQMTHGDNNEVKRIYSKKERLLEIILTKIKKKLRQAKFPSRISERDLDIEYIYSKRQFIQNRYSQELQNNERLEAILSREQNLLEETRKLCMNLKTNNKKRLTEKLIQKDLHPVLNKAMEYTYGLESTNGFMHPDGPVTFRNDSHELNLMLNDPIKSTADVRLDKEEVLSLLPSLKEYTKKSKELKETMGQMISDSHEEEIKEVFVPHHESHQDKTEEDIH
T1 sequence (Q02732 whole entry, chain 3 of 4): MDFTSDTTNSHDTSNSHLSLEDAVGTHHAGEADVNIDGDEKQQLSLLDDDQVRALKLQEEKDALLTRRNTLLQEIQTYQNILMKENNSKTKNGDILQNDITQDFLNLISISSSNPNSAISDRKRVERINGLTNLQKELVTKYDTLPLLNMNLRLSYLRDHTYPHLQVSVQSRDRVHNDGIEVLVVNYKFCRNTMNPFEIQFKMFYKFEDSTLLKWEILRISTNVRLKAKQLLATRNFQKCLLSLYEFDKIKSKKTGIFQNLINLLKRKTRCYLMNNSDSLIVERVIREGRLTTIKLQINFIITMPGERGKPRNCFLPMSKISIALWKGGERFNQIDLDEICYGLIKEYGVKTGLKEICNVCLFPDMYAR
T1 sequence (Q06675 whole entry, chain 4 of 4): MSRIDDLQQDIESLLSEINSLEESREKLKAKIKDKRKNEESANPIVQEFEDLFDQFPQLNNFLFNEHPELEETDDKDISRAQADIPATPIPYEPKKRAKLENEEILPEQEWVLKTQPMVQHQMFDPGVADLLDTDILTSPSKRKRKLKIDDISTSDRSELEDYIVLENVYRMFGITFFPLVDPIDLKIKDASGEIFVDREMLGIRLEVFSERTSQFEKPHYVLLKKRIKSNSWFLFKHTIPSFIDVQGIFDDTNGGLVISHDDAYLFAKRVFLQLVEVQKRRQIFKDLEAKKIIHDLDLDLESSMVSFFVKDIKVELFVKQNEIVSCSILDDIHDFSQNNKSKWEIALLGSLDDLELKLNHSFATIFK

Row | Binder | binding result [1] | binding result [2]
1 | B1 | binds | 
2 | B2 |  | binds
